Data from article PMC6669743.

Molecular target: HAdV-5T* virion (mutant HAdV-5 unable to bind to human or murine FX) (human adenovirus 5) (UniProt P04133)
Assay: co-sedimentation; 2 x 10^11 vp of virus incubated with 250 uL C57BL/6 mouse serum for 30 min at 37 C; virions and bound proteins purified by CsCl gradient ultracentrifugation without cross-linking; LC-MS/MS with label-free quantification normalised to hexon

With “complement component C4b (mouse) (from UniProt P01029) (natural protein)” the fold change of bound amount against HAdV-5 was 87.8 fold.

For “complement component C3 (mouse) (from UniProt P01027) (natural protein)”, the fold change of bound amount against HAdV-5 was 40.2 fold.
